From patent US20250043022A1 (JIANGSU HENGRUI PHARMACEUTICALS, published 2025) come the findings set out here.

A word on the EC50: it is the concentration giving half of the maximal effect.

Sequences and labels used below:
B1: hu31H1L2 (antibody, human IgG1, kappa, V domains shown)
VH: EVQLVESGGGLVQPGGSLRLSCAASGFTFSDYYMAWVRQAPGKGLEWVASINYDGSSTYYLDSLKSRFTISRDNAKNSLYLQMNSLRAEDTAVYYCAGSDGYWAWFAYWGQGTLVTVSS
VL: DIQMTQSPSSLSASVGDRVTITCRASGNIHNYLAWYQQKPGKAPQLLVYNAETLADGVPSRFSGSGSGTDFTLTISSLQPEDFATYYCQHFWSTPPTFGGGTKVEIKR
B2: hu31H1L3 (antibody, human IgG1, kappa, V domains shown)
VH: EVQLVESGGGLVQPGGSLRLSCAASGFTFSDYYMAWVRQAPGKGLEWVASINYDGSSTYYLDSLKSRFTISRDNAKNSLYLQMNSLRAEDTAVYYCAGSDGYWAWFAYWGQGTLVTVSS
VL: DIQMTQSPSSLSASVGDRVTITCRASGNIHNYLAWYQQKPGKSPQLLVYNAETLADGVPSRFSGSGSGTQFTLTISSLQPEDFATYYCQHFWSTPPTFGGGTKVEIKR
B3: hu15H3L1 (antibody, human IgG1, kappa, V domains shown)
VH: EFQLVQSGAEVKKPGASVKVSCKASGYSFTDHNMNWVRQAPGQRLEWMGLINPNYGTADYNQKFKGRVTITVDQSASTAYMELSSLRSEDTAVYYCARGSSLFAYWGQGTLVTVSS
VL: DIQMTQSPSSLSASVGDRVTITCKASQGVDTAVAWYQQKPGKVPKLLIYWASTRHTGVPSRFSGSGSGTDFTLTISSLQPEDVATYYCQQYSRYPLTFGQGTKLEIKR
B4: hu15H2L2 (antibody, human IgG1, kappa, V domains shown)
VH: EFQLVQSGAEVKKPGASVKVSCKASGYSFTDHNMNWVRQAPGQRLEWMGLINPNYGTADYNQKFKGRVTITRDTSASTAYMELSSLRSEDTAVYYCARGSSLFAYWGQGTLVTVSS
VL: DIQMTQSPSSLSASVGDRVTITCKASQGVDTAVAWYQQKPGKSPKLLIYWASTRHTGVPDRFSGSGSGTDFTLTISSLQPEDVATYYCQQYSRYPLTFGQGTKLEIKR
B5: hu15H1L1 (antibody, human IgG1, kappa, V domains shown)
VH: EFQLVQSGAEVKKPGASVKVSCKASGYTFTDHNMNWVRQAPGQRLEWMGLINPNYGTADYNQKFKGRVTITRDTSASTAYMELSSLRSEDTAVYYCARGSSLFAYWGQGTLVTVSS
VL: DIQMTQSPSSLSASVGDRVTITCKASQGVDTAVAWYQQKPGKVPKLLIYWASTRHTGVPSRFSGSGSGTDFTLTISSLQPEDVATYYCQQYSRYPLTFGQGTKLEIKR
B6: hu15H2L1 (antibody, human IgG1, kappa, V domains shown)
VH: EFQLVQSGAEVKKPGASVKVSCKASGYSFTDHNMNWVRQAPGQRLEWMGLINPNYGTADYNQKFKGRVTITRDTSASTAYMELSSLRSEDTAVYYCARGSSLFAYWGQGTLVTVSS
VL: DIQMTQSPSSLSASVGDRVTITCKASQGVDTAVAWYQQKPGKVPKLLIYWASTRHTGVPSRFSGSGSGTDFTLTISSLQPEDVATYYCQQYSRYPLTFGQGTKLEIKR
B7: hu15H1L2 (antibody, human IgG1, kappa, V domains shown)
VH: EFQLVQSGAEVKKPGASVKVSCKASGYTFTDHNMNWVRQAPGQRLEWMGLINPNYGTADYNQKFKGRVTITRDTSASTAYMELSSLRSEDTAVYYCARGSSLFAYWGQGTLVTVSS
VL: DIQMTQSPSSLSASVGDRVTITCKASQGVDTAVAWYQQKPGKSPKLLIYWASTRHTGVPDRFSGSGSGTDFTLTISSLQPEDVATYYCQQYSRYPLTFGQGTKLEIKR
B8: hu15H3L2 (antibody, human IgG1, kappa, V domains shown)
VH: EFQLVQSGAEVKKPGASVKVSCKASGYSFTDHNMNWVRQAPGQRLEWMGLINPNYGTADYNQKFKGRVTITVDQSASTAYMELSSLRSEDTAVYYCARGSSLFAYWGQGTLVTVSS
VL: DIQMTQSPSSLSASVGDRVTITCKASQGVDTAVAWYQQKPGKSPKLLIYWASTRHTGVPDRFSGSGSGTDFTLTISSLQPEDVATYYCQQYSRYPLTFGQGTKLEIKR
B9: hu15H5L2 (antibody, human IgG1, kappa, V domains shown)
VH: EFQLVQSGAEVKKPGASVKVSCKASGYSFTDHNMNWVRQAPGQRLEWIGLINPNYGTADYNQKFKGRATLTVDQSATTAYMELSSLRSEDTAVYYCARGSSLFAYWGQGTLVTVSS
VL: DIQMTQSPSSLSASVGDRVTITCKASQGVDTAVAWYQQKPGKSPKLLIYWASTRHTGVPDRFSGSGSGTDFTLTISSLQPEDVATYYCQQYSRYPLTFGQGTKLEIKR
B10: hu15H4L1 (antibody, human IgG1, kappa, V domains shown)
VH: EFQLVQSGAEVKKPGASVKVSCKASGYSFTDHNMNWVRQAPGQRLEWMGLINPNYGTADYNQKFKGRVTLTVDQSATTAYMELSSLRSEDTAVYYCARGSSLFAYWGQGTLVTVSS
VL: DIQMTQSPSSLSASVGDRVTITCKASQGVDTAVAWYQQKPGKVPKLLIYWASTRHTGVPSRFSGSGSGTDFTLTISSLQPEDVATYYCQQYSRYPLTFGQGTKLEIKR
B11: hu15H5L1 (antibody, human IgG1, kappa, V domains shown)
VH: EFQLVQSGAEVKKPGASVKVSCKASGYSFTDHNMNWVRQAPGQRLEWIGLINPNYGTADYNQKFKGRATLTVDQSATTAYMELSSLRSEDTAVYYCARGSSLFAYWGQGTLVTVSS
VL: DIQMTQSPSSLSASVGDRVTITCKASQGVDTAVAWYQQKPGKVPKLLIYWASTRHTGVPSRFSGSGSGTDFTLTISSLQPEDVATYYCQQYSRYPLTFGQGTKLEIKR
B12: hu41H1L2 (antibody, human IgG1, kappa, V domains shown)
VH: EVQLVQSGAEVKKPGASVKVSCKASGYTFTSYGISWVRQAPGQGLEWMGEIFPRRGNTYYNEKFRGRVTMTTDKSTSTAYMELRSLRSDDTAVYYCARVFDGYYNYAMDYWGQGTTVTVSS
VL: DIQMTQSPSSLSASVGDRVTITCRASQDIGSSLNWLQQKPGKAIKRLIYATSSLDSGVPSRFSGSRSGTDYTLTISSLQPEDFATYYCLQYASSPYTFGGGTKVEIKR
B13: hu41H1L3 (antibody, human IgG1, kappa, V domains shown)
VH: EVQLVQSGAEVKKPGASVKVSCKASGYTFTSYGISWVRQAPGQGLEWMGEIFPRRGNTYYNEKFRGRVTMTTDKSTSTAYMELRSLRSDDTAVYYCARVFDGYYNYAMDYWGQGTTVTVSS
VL: DIQMTQSPSSLSASVGDRVTITCRASQDIGSSLNWLQQKPGGAIKRLIYATSSLDSGVPSRFSGSRSGSDYTLTISSLQPEDFATYYCLQYASSPYTFGGGTKVEIKR
B14: hu41H1L1 (antibody, human IgG1, kappa, V domains shown)
VH: EVQLVQSGAEVKKPGASVKVSCKASGYTFTSYGISWVRQAPGQGLEWMGEIFPRRGNTYYNEKFRGRVTMTTDKSTSTAYMELRSLRSDDTAVYYCARVFDGYYNYAMDYWGQGTTVTVSS
VL: DIQMTQSPSSLSASVGDRVTITCRASQDIGSSLNWLQQKPGKAPKRLIYATSSLDSGVPSRFSGSRSGTDFTLTISSLQPEDFATYYCLQYASSPYTFGGGTKVEIKR
B15: hu41H2L1 (antibody, human IgG1, kappa, V domains shown)
VH: EVQLVQSGAEVKKPGASVKVSCKASGYTFTSYGISWVRQAPGQGLEWMGEIFPRRGNTYYNEKFRGRVTLTADKSTSTAYMELRSLRSDDTAVYYCARVFDGYYNYAMDYWGQGTTVTVSS
VL: DIQMTQSPSSLSASVGDRVTITCRASQDIGSSLNWLQQKPGKAPKRLIYATSSLDSGVPSRFSGSRSGTDFTLTISSLQPEDFATYYCLQYASSPYTFGGGTKVEIKR

For the experiment, the target named is T1, human PSMA on cells (Cho-hPSMA, CHO-K1 cells overexpressing full-length human PSMA) (human, UniProt Q04609 1-750).
T1 construct: whole, on cells; also called cell surface PSMA; PSMA-expressing Lncap cells
T1 sequence (Q04609 whole entry): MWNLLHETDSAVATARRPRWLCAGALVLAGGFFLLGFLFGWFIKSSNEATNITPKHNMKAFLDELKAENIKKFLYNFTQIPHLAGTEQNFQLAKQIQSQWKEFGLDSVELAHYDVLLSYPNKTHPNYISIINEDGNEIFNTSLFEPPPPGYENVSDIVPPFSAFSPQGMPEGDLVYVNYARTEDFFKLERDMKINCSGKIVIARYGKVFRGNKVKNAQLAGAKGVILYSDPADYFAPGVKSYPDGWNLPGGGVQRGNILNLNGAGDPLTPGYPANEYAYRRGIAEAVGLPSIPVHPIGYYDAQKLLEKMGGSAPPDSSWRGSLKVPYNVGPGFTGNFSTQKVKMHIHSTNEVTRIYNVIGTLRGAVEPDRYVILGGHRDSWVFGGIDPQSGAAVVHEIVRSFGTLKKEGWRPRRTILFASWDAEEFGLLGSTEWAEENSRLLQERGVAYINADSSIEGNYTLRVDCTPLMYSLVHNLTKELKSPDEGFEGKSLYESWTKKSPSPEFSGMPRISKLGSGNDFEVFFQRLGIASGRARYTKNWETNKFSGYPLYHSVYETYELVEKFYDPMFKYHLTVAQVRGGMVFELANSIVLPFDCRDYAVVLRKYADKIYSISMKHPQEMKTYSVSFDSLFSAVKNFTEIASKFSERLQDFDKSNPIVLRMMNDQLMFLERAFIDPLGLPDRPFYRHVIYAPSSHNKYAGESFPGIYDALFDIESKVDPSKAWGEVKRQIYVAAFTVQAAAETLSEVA
Description: cell ELISA (OD450), Cho-hPSMA cells. How it is done:
Experiment 2: Cells were cultured and inoculated onto a cell plate using the same method as in Experiment 1. The antibodies were serially diluted, and the antibody solutions were added to the cell plate at 100 μL/well. The plate was incubated at 4° C. for 1 h and then washed. An HRP-Goat Anti-human IgG (H+L) secondary antibody dilution (1:8000) was added to the cell plate at 100 μL/well, and the plate was incubated at 4° C. for 1 h and then washed by centrifugation. After color development with TMB, the reaction was stopped with 0.1 M sulfuric acid, and OD450 values were measured.
Molecule B1 had an EC50 of 0.12 µg/mL.

As for B2, the half-maximal effective concentration (EC50) came to 0.124 µg/mL. This EC50 and that of the molecule before are within 1.5-fold of each other.

Consider B3, for which the midpoint of the response, the EC50, lay at 0.0731 µg/mL.

Consider B4, for which it took 0.0874 µg/mL to reach a half-maximal effect (EC50).

For B5, the EC50 is 0.0683 µg/mL.

In turn, B6 gave an EC50 of 0.0871 µg/mL. This EC50 and that of the molecule before are within 1.5-fold of each other.

B7: a half-maximal effect (EC50) was put at 0.075 µg/mL. The EC50 values of the last two molecules are within 1.5-fold of each other.

B8: the EC50 turned out to be 0.0821 µg/mL.

B9 returned an EC50 of 0.0818 µg/mL.

As to B10, the EC50 is 0.069 µg/mL.

Regarding B11, the EC50 came to 0.0847 µg/mL.

The molecule B12 showed an EC50 of 0.982 µg/mL.

With B13, the EC50 was 0.985 µg/mL. The EC50 values of the last two molecules are within 1.5-fold of each other.

The molecule B14 yielded an EC50 of 1.08 µg/mL. This EC50 and that of the molecule before are within 1.5-fold of each other.

The molecule B15 had an EC50 of 1.22 µg/mL.
